Source: patent JP2017222678A (dated 2017)
One block for each binder: values may come before it.

Legend:
[1] = biological target: T1, ヒトTFPI (human tissue factor pathway inhibitor; American Diagnostica) (human, UniProt P10646 29-304, limits assumed); test: ELISA on coated human TFPI
T1 construct: Coated on plates (ELISA) or amine-coupled to a CM5 chip (Biacore); also called h-TFPI; hTFPI
T1 sequence (looked up): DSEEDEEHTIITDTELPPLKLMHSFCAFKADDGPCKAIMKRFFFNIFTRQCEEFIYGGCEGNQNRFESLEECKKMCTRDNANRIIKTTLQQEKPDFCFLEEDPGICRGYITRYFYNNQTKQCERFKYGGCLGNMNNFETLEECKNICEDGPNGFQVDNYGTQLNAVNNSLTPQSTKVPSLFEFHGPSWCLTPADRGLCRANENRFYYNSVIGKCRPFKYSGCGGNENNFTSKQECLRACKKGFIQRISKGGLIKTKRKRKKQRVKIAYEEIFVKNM

[2] = biological target: T2, マウスTFPI (mouse TFPI; R&D System) (mouse, UniProt O54819 29-289, limits assumed); test: ELISA on coated mouse TFPI
T2 construct: also called m-TFPI; mTFPI
T2 sequence (looked up): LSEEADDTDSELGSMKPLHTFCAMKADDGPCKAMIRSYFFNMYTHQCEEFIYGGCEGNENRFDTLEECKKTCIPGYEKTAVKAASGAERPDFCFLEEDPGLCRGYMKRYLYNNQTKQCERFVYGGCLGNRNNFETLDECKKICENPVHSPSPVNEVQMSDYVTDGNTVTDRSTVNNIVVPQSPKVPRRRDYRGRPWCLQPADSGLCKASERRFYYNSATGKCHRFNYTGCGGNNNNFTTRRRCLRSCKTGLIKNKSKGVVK

[3] = biological target: T1, ヒトTFPI (human tissue factor pathway …); test: ELISA, Fab in bacterial lysate on coated human TFPI

EC50 [1]: 0.48 nM
EC50 [2]: 5.18 nM
B1: TP-2G6 (Fab, V domains shown)
VH: QVQLQQSGPGLVKPSQTLSLTCAISGDSVSSSSAAWSWIRQSPGRGLEWLGIIYYRSKWYNDYAVSVKSRITINPDTSKNQFSLQLNSVTPEDTAVYYCARHSMVGFDVWGQGTLVTVSS
VL: DIVLTQSPATLSLSPGERATLSCRASQYVTSSYLAWYQQKPGQAPRLLIYGSSRATGVPARFSGSGSGTDFTLTISSLEPEDFATYYCQQYSSSPITFGQGTKVEIKR
notes: HuCAL Gold human Fab from E. coli TG1; also called 2G6-Fab

EC50 [1]: 0.22 nM
fold improvement of EC50 against 2G6-Fab [1]: 2 fold
EC50 [2]: 0.51 nM
fold improvement of EC50 against 2G6-Fab [2]: 10 fold
B2: 2G6-IgG (antibody, V domains shown)
VH: B1 VH
VL: B1 VL
notes: also called IgG-2G6; TP-2G6 after conversion to IgG

binding result [3]: binds
B3: TP-2B8 (Fab, V domains shown)
VH: QVQLVQSGAEVKKPGASVKVSCKASGYTFTGNSMHWVRQAPGQGLEWMGTIFPYDGTTKYAQKFQGRVTMTRDTSISTAYMELSSLRSEDTAVYYCARGVHSYFDYWGQGTLVTVSS
VL: DIELTQPPSVSVAPGQTARISCSGDNLRGYYASWYQQKPGQAPVLVIYEDNNRPSGIPERFSGSNSGNTATLTISGTQAEDEADYYCQSWDSPYVHVFGGGTKLTVLG
notes: HuCAL Gold human Fab from E. coli TG1
